This passage reports Kd results from US20140363428A1 (Chugai, published 2014).

Where a chain is given by its changes, count along the chain named.

One may read the Kd as the constant that tells how readily two partners part at equilibrium.

B1: IgG1-F1125 (antibody)
heavy: QVQLQESGPGLVKPSETLSLTCAVSGHSISHDHAWSWVRQPPGEGLEWIGFISYSGITNYNPSLQGRVTISRDNSKNTLYLQMNSLRAEDTAVYYCARSLARTTAMDYWGEGTLVTVSSASTKGPSVFPLAPSSKSTSGGTAALGCLVKDYFPEPVTVSWNSGALTSGVHTFPAVLQSSGLYSLSSVVTVPSSSLGTQTYICNVNHKPSNTKVDKKVEPKSCDKTHTCPPCPAPELLGGPSVFLFPPKPKDTLYISRTPEVTCVVVDVSHEDPEVKFNWYVDGVEVHNAKTKPREEQYNSTYRVVSVLQVLHQDWLNGKEYKCKVSNKALPAPIEKTISKAKGQPREPQVYTLPPSRDELTKNQVSLTCLVKGFYPSDIAVEWESNGQPENNYKTTPPVLDSDGSFFLYSKLTVDKSRWQQGNVFSCSVMHEALHYHVTQKSLSLSP
light: not shown
notes: VH3-IgG1 with Fc substitutions (EU numbering) + L(WT)-CK
B2: IgG1-F1072 (antibody)
heavy: B1 heavy with Q309T, S442E
light: not shown
notes: as for B1
B3: IgG1-F1076 (antibody)
heavy: B1 heavy with S241D, Q309T, K328D, L330Y
light: not shown
notes: as for B1
B4: IgG1-F1077 (antibody)
heavy: B1 heavy with K250N, Q309T, V438Y
light: not shown
notes: as for B1
B5: IgG1-F1066 (antibody)
heavy: B1 heavy with Q309T, V424S
light: not shown
notes: as for B1
B6: IgG1-F1070 (antibody)
heavy: B1 heavy with Q309T, Q440R
light: not shown
notes: as for B1
B7: IgG1-F1079 (antibody)
heavy: B1 heavy with Q309T, E384N, N386S, V438Y
light: not shown
notes: as for B1
B8: IgG1-F1060 (antibody)
heavy: B1 heavy with Q309T, Q388S
light: not shown
notes: as for B1
B9: IgG1-F1058 (antibody)
heavy: B1 heavy with Q309T, Q388E
light: not shown
notes: as for B1
B10: IgG1-F1068 (antibody)
heavy: B1 heavy with Q309T, S426R
light: not shown
notes: as for B1
B11: IgG1-F1067 (antibody)
heavy: B1 heavy with Q309T, S426E
light: not shown
notes: as for B1
B12: IgG1-F1069 (antibody)
heavy: B1 heavy with Q309T, Q440E
light: not shown
notes: as for B1
B13: IgG1-F1065 (antibody)
heavy: B1 heavy with Q309T, V424R
light: not shown
notes: as for B1
B14: IgG1-F1061 (antibody)
heavy: B1 heavy with Q309T, P389E
light: not shown
notes: as for B1
B15: IgG1-F1064 (antibody)
heavy: B1 heavy with Q309T, V424E
light: not shown
notes: as for B1
B16: IgG1-F1073 (antibody)
heavy: B1 heavy with Q309T, S442R
light: not shown
notes: as for B1
B17: IgG1-F1074 (antibody)
heavy: B1 heavy with S241D, Q309T
light: not shown
notes: as for B1
B18: IgG1-F1059 (antibody)
heavy: B1 heavy with Q309T, Q388R
light: not shown
notes: as for B1
B19: IgG1-F1063 (antibody)
heavy: B1 heavy with Q309T, P389S
light: not shown
notes: as for B1
B20: IgG1-F1071 (antibody)
heavy: B1 heavy with Q309T, Q440S
light: not shown
notes: as for B1
B21: IgG1-F1316 (antibody)
heavy: B1 heavy with G239R, S241K, Q309T
light: not shown
notes: EU numbering; copies: 2 + 2
B22: IgG1-F1346 (antibody)
heavy: B1 heavy with L237R, G238R, S241K, S256T, Q309T, Q440K, S442E
light: not shown
notes: EU numbering; copies: 2 + 2
B23: IgG1-F1320 (antibody)
heavy: B1 heavy with L237R, S241K, S256T, Q309T, Q440R, S442D
light: not shown
notes: EU numbering; copies: 2 + 2
B24: IgG1-F1343 (antibody)
heavy: B1 heavy with L237R, S241K, S256T, T258E, Q309T, V438T, Q440K, S442E
light: not shown
notes: EU numbering; copies: 2 + 2
B25: IgG1-F1342 (antibody)
heavy: B1 heavy with L237R, S241K, T258E, Q309T, V438T, Q440K, S442E
light: not shown
notes: EU numbering; copies: 2 + 2
B26: IgG1-F1319 (antibody)
heavy: B1 heavy with Q309T, L330Y, V438Y
light: not shown
notes: EU numbering; copies: 2 + 2
B27: IgG1-F1334 (antibody)
heavy: B1 heavy with L237R, G238R, S241K, Q309T, Q440K, S442D
light: not shown
notes: EU numbering; copies: 2 + 2
B28: IgG1-F1325 (antibody)
heavy: B1 heavy with L236A, L237A, N299A, Q309T
light: not shown
notes: EU numbering; copies: 2 + 2
B29: IgG1-F1328 (antibody)
heavy: B1 heavy with L237R, G238R, S241K, Q309T, Q440R, S442E
light: not shown
notes: EU numbering; copies: 2 + 2
B30: IgG1-F1349 (antibody)
heavy: B1 heavy with L237R, S241K, Q309T, V438T, Q440R, S442E
light: not shown
notes: EU numbering; copies: 2 + 2
B31: IgG1-F1317 (antibody)
heavy: B1 heavy with S241K, Q309T, P331K
light: not shown
notes: EU numbering; copies: 2 + 2
B32: IgG1-F1338 (antibody)
heavy: B1 heavy with L237R, S241K, T258E, Q309T, H435D, Q440K, S442E
light: not shown
notes: EU numbering; copies: 2 + 2
B33: IgG1-F1330 (antibody)
heavy: B1 heavy with L237R, G238R, S241K, T258E, Q309T, Q440R, S442E
light: not shown
notes: EU numbering; copies: 2 + 2
B34: IgG1-F1348 (antibody)
heavy: B1 heavy with L237R, G238R, S241K, S256T, T258E, Q309T, Q440K, S442E
light: not shown
notes: EU numbering; copies: 2 + 2
B35: IgG1-F1345 (antibody)
heavy: B1 heavy with L237R, G238R, S241K, Q309T, Q440K, S442E
light: not shown
notes: EU numbering; copies: 2 + 2
B36: IgG1-F1341 (antibody)
heavy: B1 heavy with L237R, S241K, S256T, Q309T, V438T, Q440K, S442E
light: not shown
notes: EU numbering; copies: 2 + 2
B37: IgG1-F1331 (antibody)
heavy: B1 heavy with L237R, G238R, S241K, S256T, T258E, Q309T, Q440R, S442E
light: not shown
notes: EU numbering; copies: 2 + 2
B38: IgG1-F1352 (antibody)
heavy: B1 heavy with L237R, S241K, Q309T, H435D, V438T, Q440K, S442E
light: not shown
notes: EU numbering; copies: 2 + 2
B39: IgG1-F1340 (antibody)
heavy: B1 heavy with L237R, S241K, S256T, T258E, Q309T, Q440K, S442E
light: not shown
notes: EU numbering; copies: 2 + 2
B40: IgG1-F1347 (antibody)
heavy: B1 heavy with L237R, G238R, S241K, T258E, Q309T, Q440K, S442E
light: not shown
notes: EU numbering; copies: 2 + 2
B41: IgG1-F1337 (antibody)
heavy: B1 heavy with L237R, S241K, T258E, Q309T, Q440K, S442E
light: not shown
notes: EU numbering; copies: 2 + 2
B42: IgG1-F1339 (antibody)
heavy: B1 heavy with L237R, S241K, S256T, T258E, Q309T, H435D, V438T, Q440K, S442E
light: not shown
notes: EU numbering; copies: 2 + 2
B43: IgG1-F1318 (antibody)
heavy: B1 heavy with S241K, Q309T, P331R
light: not shown
notes: EU numbering; copies: 2 + 2
B44: IgG1-F1344 (antibody)
heavy: B1 heavy with L237R, S241K, Q309T, V438T, Q440K, S442E
light: not shown
notes: EU numbering; copies: 2 + 2
B45: IgG1-F1324 (antibody)
heavy: B1 heavy with L236A, L237A, Q309T
light: not shown
notes: EU numbering; copies: 2 + 2
B46: IgG1-F1336 (antibody)
heavy: B1 heavy with L237R, G238R, S241K, T258E, Q309T, Q440K, S442D
light: not shown
notes: EU numbering; copies: 2 + 2
B47: IgG1-F1351 (antibody)
heavy: B1 heavy with L237R, S241K, Q309T, V438F, Q440R, S442E
light: not shown
notes: EU numbering; copies: 2 + 2
B48: IgG1-F1321 (antibody)
heavy: B1 heavy with L237R, S241K, S256T, Q309T, Q440K, S442E
light: not shown
notes: EU numbering; copies: 2 + 2
B49: IgG1-F1350 (antibody)
heavy: B1 heavy with L237R, S241K, Q309T, V438F, Q440K, S442E
light: not shown
notes: EU numbering; copies: 2 + 2
B50: IgG1-F1335 (antibody)
heavy: B1 heavy with L237R, G238R, S241K, S256T, Q309T, Q440K, S442D
light: not shown
notes: EU numbering; copies: 2 + 2
B51: IgG1-F1333 (antibody)
heavy: B1 heavy with L237R, G238R, S241K, Q309T
light: not shown
notes: EU numbering; copies: 2 + 2
B52: IgG1-F1329 (antibody)
heavy: B1 heavy with L237R, G238R, S241K, S256T, Q309T, Q440R, S442E
light: not shown
notes: EU numbering; copies: 2 + 2
B53: IgG1-F1323 (antibody)
heavy: B1 heavy with L237R, S241K, S256T, Q309T, H435D, Q440K, S442E
light: not shown
notes: EU numbering; copies: 2 + 2

For one assay, the target named is T1, soluble human FcRn (heterodimer of FcRn alpha chain and beta2-microglobulin) (human, UniProt P55899 24-297; P61769 21-119).
T1 construct: Expressed in HEK293H and purified on IgG Sepharose; also called hFcRn
T1 sequence (P55899 24-297 limits assumed, chain 1 of 2): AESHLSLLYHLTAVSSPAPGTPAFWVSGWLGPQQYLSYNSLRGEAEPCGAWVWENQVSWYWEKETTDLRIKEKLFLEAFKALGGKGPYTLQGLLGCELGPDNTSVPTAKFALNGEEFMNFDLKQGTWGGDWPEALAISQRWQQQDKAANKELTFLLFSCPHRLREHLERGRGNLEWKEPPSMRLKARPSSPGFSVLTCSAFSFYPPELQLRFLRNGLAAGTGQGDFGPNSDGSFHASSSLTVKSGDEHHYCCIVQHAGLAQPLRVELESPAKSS
T1 sequence (P61769 21-119 limits assumed, chain 2 of 2): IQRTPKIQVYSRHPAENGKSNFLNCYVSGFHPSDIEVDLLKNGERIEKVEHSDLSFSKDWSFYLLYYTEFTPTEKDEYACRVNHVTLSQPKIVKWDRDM
Description: SPR Biacore T100, antibody captured via protein L, hFcRn analyte, pH 7.0, 25 C. (In general: SPR reads the build-up and loss of mass on a sensor chip optically.)
Description: An appropriate amount of protein L (ACTIGEN) was immobilized onto Sensor chip CM4 (GE Healthcare) by the amino coupling method, and the chip was allowed to capture an antibody of interest. Then, diluted FcRn solutions and running buffer (as a reference solution) were injected to allow human FcRn to interact with the antibody captured on the sensor chip. The running buffer used comprised 50 mmol/l sodium phosphate, 150 mmol/l NaCl, and 0.05% (w/v) Tween20 (pH 7.0). FcRn was diluted using each buffer. The chip was regenerated using 10 mmol/l glycine-HCl (pH 1.5). Assays were carried out exclusively at 25 degrees C. The association rate constant ka (1/Ms) and dissociation rate constant kd (1/s), both of which are kinetic parameters, were calculated based on the sensorgrams obtained in the assays, and KD (M) of each antibody for human FcRn was determined from these values. Each parameter was calculated using Biacore T100 Evaluation Software (GE Healthcare).
On to B1, for which binding was put at a Kd of 52 nM. On the same count and under the same terms, to B2 belongs 130 nM. Still for that read-out and setting: to B3 belongs 130 nM; to B4, 2000 nM. For the molecule B5, the affinity, expressed as Kd, was 140 nM.

Molecule B6 returned a Kd of 170 nM. On the same count and under the same terms, to B7 belongs 340 nM; to B8, 140 nM.

On to B9, for which the affinity, expressed as Kd, was 130 nM. Turning to B10, the Kd was 170 nM. B11 returned a dissociation constant Kd of 130 nM. Molecule B12 registered a Kd of 140 nM. Same read-out and setting: to B13 belongs 140 nM; to B14, 120 nM; to B15, 130 nM. The same measure, in the same setting: to B16 belongs 130 nM; to B17, 130 nM; to B18, 140 nM. As to B19, the Kd was 140 nM. Consider B20, for which the Kd came to 120 nM.

In the next assay the target is T2, soluble human FcRn (human, UniProt P55899 24-297; P61769 21-119).
T2 construct: Heterodimer of FcRn alpha chain and beta2-microglobulin; also called hFcRn
T2 sequence (P55899 24-297 limits assumed, chain 1 of 2): as the sequence (P55899 24-297 limits assumed, chain 1 of 2) above
T2 sequence (P61769 21-119 limits assumed, chain 2 of 2): as the sequence (P61769 21-119 limits assumed, chain 2 of 2) above
The assay can be described thus: SPR (Biacore T100), antibody captured by protein L, hFcRn as analyte, pH 7.0, 25 C.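 Further: KD calculated from fitted association and dissociation rate constants of the sensorgrams, protein L amine-coupled to the sensor chip, sodium phosphate running buffer with NaCl and Tween20.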
With B21, the Kd worked out at 150 nM. The same measure, in the same setting: to B22 belongs 86 nM. Molecule B23 had a dissociation constant Kd of 120 nM. The molecule B24 returned a Kd of 200 nM. The molecule B25 came in with a dissociation constant (Kd) of 250 nM. In turn, B26 gave a Kd of 270 nM. B27 displayed a dissociation constant (Kd) of 100 nM. Turning to B28, the Kd stood at 210 nM. The same measure, in the same setting: with B29 the figure was 150 nM. Regarding B30, the Kd came to 340 nM.

As for B31, the Kd was 140 nM. For the molecule B32, the equilibrium dissociation constant (Kd) was determined as 100 nM. In the case of B33, binding was put at a Kd of 100 nM.

B34 registered a Kd of 55 nM. B35 gave a dissociation constant (Kd) of 100 nM.

In turn, B36 had a Kd of 320 nM. In turn, B37 yielded an equilibrium dissociation constant (Kd) of 77 nM. B38 returned a Kd of 390 nM. For the molecule B39, the affinity, expressed as Kd, was 56 nM. Still for that read-out and setting: with B40 the figure was 71 nM; with B41, 74 nM. The molecule B42 had an equilibrium dissociation constant (Kd) of 250 nM. In turn, B43 registered an equilibrium dissociation constant (Kd) of 140 nM. Molecule B44 registered a Kd of 400 nM. Consider B45, for which the affinity, expressed as Kd, was 130 nM.

Take B46: the dissociation constant Kd amounted to 72 nM. In turn, B47 showed a dissociation constant Kd of 160 nM. In turn, B48 showed a Kd of 100 nM. Consider B49, for which the affinity, expressed as Kd, was 120 nM.

B50: the affinity, expressed as Kd, was 88 nM. Same read-out and setting: with B51 the figure was 120 nM. Turning to B52, the Kd worked out at 130 nM. The same measure, in the same setting: with B53 the figure was 150 nM.
